In article doi:10.1101/2023.06.20.545791 (bioRxiv, 2023):
Ends that are not written are not given here.

T1: IRE1α lumenal domain (IRE1αLD) (human, UniProt O75460 24-443)
T1 sequence: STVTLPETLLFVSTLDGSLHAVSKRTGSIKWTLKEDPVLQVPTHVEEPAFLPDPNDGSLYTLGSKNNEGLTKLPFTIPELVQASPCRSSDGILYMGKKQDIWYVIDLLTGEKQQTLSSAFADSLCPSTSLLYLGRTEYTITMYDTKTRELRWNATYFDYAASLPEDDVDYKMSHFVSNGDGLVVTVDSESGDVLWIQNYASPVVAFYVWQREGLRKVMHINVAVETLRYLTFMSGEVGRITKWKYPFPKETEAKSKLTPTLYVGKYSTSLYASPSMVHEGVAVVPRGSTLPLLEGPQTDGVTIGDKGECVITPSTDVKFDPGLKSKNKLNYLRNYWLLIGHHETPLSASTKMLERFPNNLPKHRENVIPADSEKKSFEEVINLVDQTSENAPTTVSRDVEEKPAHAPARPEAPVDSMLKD


Assays:
[1] = biological target: T1, IRE1α lumenal domain (IRE1αLD); assay: […]
[2] = biological target: T1, IRE1α lumenal domain (IRE1αLD); assay: fluorescence polarisation
[3] = biological target: T1, IRE1α lumenal domain (IRE1αLD); assay: […]; remark: listed apart in the source

Binder	binding result [1]	further results
IYGWYRVHF [CTxA1_(I124-F132) peptide]	binds	
IHFYSKWYIR [SARS-CoV2 ORF8 peptide 39-48]	binds	
IYGWYRVHFGVLDEQLHR [CTxA1_(I124-R141) peptide]		Kd [1]: 44 ± 5 µM
YWLLIGHHETPL (not fully specified (N-terminus)) [IRE1α_(Y358-L369) peptide]		Kd [2]: 190 ± 20 µM; Ki [3]: 220 ± 30 µM
IYGWYRVNF [heat-labile enterotoxin (LTx) peptide 124-132]	binds	
